{"source": "the RNAGym collection of RNA variant scans (doi:10.1073/pnas.2313332121)", "parents": {"B1": {"name": "TPR 5TU (parent)", "chain": "GGAUCUUCUCGAUCUAACAAAAAAGACAAAUCUGCCACAAAGCUUGAGAGCAUCUUCGGAUGCAGAGGCGGCAGCCUUCGGUGGCGCGAUAGCGCCAACGUUCUCAACUAUGACACGCAAAACGCGUGCUCCGUUGAAUGGAGUUUAUCAUG"}}, "note": "Variants at the floor of the assay were thinned out.", "data": [{"variants_of": "B1", "experiment": "polymerase ribozyme fitness, log enrichment relative to wild type (log ratio); higher = more active; in vitro selection for triplet polymerase activity", "in_short": "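Fitness compares each genotype's enrichment to that of the wild type on a logarithmic scale, averaging replicates with inverse-variance weights. The logarithm is base 2. Enrichment came from Illumina sequencing of input and output libraries after one triplicate round of in vitro selection, which included frozen incubation at −7 °C, of PCR-built, transcribed mutant libraries of each subunit of a heterodimeric triplet polymerase ribozyme. Only genotypes with ≥10 input reads and ≥1 read per output were kept.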", "values": [{"variant": "A29C U53A", "polymerase ribozyme fitness (log ratio)": "≤ -4.2"}, {"variant": "A30C U33A G68U A73U C95A C114A A121G", "polymerase ribozyme fitness (log ratio)": "≤ -4.2"}, {"variant": "A29G C43U A66C C96U C103A", "polymerase ribozyme fitness (log ratio)": "≤ -4.2"}, {"variant": "A30U A52G U56G G80C G84U A98C A110U", "polymerase ribozyme fitness (log ratio)": "≤ -4.2"}, {"variant": "A30U C38A C75G C85U G141C", "polymerase ribozyme fitness (log ratio)": "≤ -4.2"}, {"variant": "A29U C36U G62A U109G", "polymerase ribozyme fitness (log ratio)": "≤ -4.2"}, {"variant": "A29G C38U U53G C85G A98U C108A G128U", "polymerase ribozyme fitness (log ratio)": -3.97}, {"variant": "A30C C35U C54U C85U A121U", "polymerase ribozyme fitness (log ratio)": "≤ -4.2"}, {"variant": "A30G A60G C93A C105G C132A A142U", "polymerase ribozyme fitness (log ratio)": "≤ -4.2"}, {"variant": "A30G C87G U101C A122G", "polymerase ribozyme fitness (log ratio)": "≤ -4.2"}, {"variant": "A30U G71C C95A", "polymerase ribozyme fitness (log ratio)": "≤ -4.2"}, {"variant": "A29U G50U C116U A147U", "polymerase ribozyme fitness (log ratio)": -4.04}, {"variant": "A29U A41U C75U C123U G143U U145G", "polymerase ribozyme fitness (log ratio)": "≤ -4.2"}, {"variant": "A29G U78G G84C", "polymerase ribozyme fitness (log ratio)": "≤ -4.2"}, {"variant": "A30U C87G C116A G141A", "polymerase ribozyme fitness (log ratio)": "≤ -4.2"}, {"variant": "A30G C38U A73U U78G C87G C105G", "polymerase ribozyme fitness (log ratio)": "≤ -4.2"}, {"variant": "A30U U45A G50C C79G G83C G126C", "polymerase ribozyme fitness (log ratio)": "≤ -4.2"}, {"variant": "A29C U33G A40U G80U G94U U102C G143A U151A", "polymerase ribozyme fitness (log ratio)": -3.89}, {"variant": "A30U G83U G88A U109C C125U G133C", "polymerase ribozyme fitness (log ratio)": "≤ -4.2"}, {"variant": "A30U C43U G70U C87G", "polymerase ribozyme fitness (log ratio)": "≤ -4.2"}, {"variant": "A30G A64G G136C", "polymerase ribozyme fitness (log ratio)": -4.07}, {"variant": "A30G C54G A121U U139A U145C", "polymerase ribozyme fitness (log ratio)": "≤ -4.2"}, {"variant": "A29G U55A C95U U101C U109A G133A", "polymerase ribozyme fitness (log ratio)": "≤ -4.2"}, {"variant": "A29U A66U C96U", "polymerase ribozyme fitness (log ratio)": "≤ -4.2"}, {"variant": "A30U A40G G50C G67A C76A C85U A89C C132U", "polymerase ribozyme fitness (log ratio)": "≤ -4.2"}, {"variant": "A29U G68A", "polymerase ribozyme fitness (log ratio)": "≤ -4.2"}, {"variant": "A30G C54A C85G A120U C125U G136A", "polymerase ribozyme fitness (log ratio)": "≤ -4.2"}, {"variant": "A30U A91U U104G", "polymerase ribozyme fitness (log ratio)": "≤ -4.2"}, {"variant": "A29G U90G A122U A142U C149G", "polymerase ribozyme fitness (log ratio)": "≤ -4.2"}, {"variant": "A29U G48A C87G A121G G141C G152U", "polymerase ribozyme fitness (log ratio)": "≤ -4.2"}, {"variant": "A30G C51U G68C A121G U127C", "polymerase ribozyme fitness (log ratio)": "≤ -4.2"}, {"variant": "A30U A66G A115U G143A", "polymerase ribozyme fitness (log ratio)": "≤ -4.2"}, {"variant": "A30G C57A", "polymerase ribozyme fitness (log ratio)": -2.9}, {"variant": "A29U G133C", "polymerase ribozyme fitness (log ratio)": "≤ -4.2"}, {"variant": "A30G U77C G84C G86U U102A C118U", "polymerase ribozyme fitness (log ratio)": "≤ -4.2"}, {"variant": "A29G A41C", "polymerase ribozyme fitness (log ratio)": -3.63}, {"variant": "A30U G83U G141U", "polymerase ribozyme fitness (log ratio)": -3.89}, {"variant": "A29G C105G U146G", "polymerase ribozyme fitness (log ratio)": "≤ -4.2"}, {"variant": "A30U G94U", "polymerase ribozyme fitness (log ratio)": "≤ -4.2"}, {"variant": "A30U G94A", "polymerase ribozyme fitness (log ratio)": -3.7}, {"variant": "A29G U31A C96U C114U G140C", "polymerase ribozyme fitness (log ratio)": "≤ -4.2"}, {"variant": "A29U G46A U61A U78G C87G A89C G124U U148G", "polymerase ribozyme fitness (log ratio)": "≤ -4.2"}, {"variant": "A30G G46A A107U", "polymerase ribozyme fitness (log ratio)": -4.03}, {"variant": "A29G U45C A52C U53G U134C G136U", "polymerase ribozyme fitness (log ratio)": "≤ -4.2"}, {"variant": "A30G C57U C63U G68C C95U A120C C125G", "polymerase ribozyme fitness (log ratio)": "≤ -4.2"}, {"variant": "A29U U31G C36U C69G G84A", "polymerase ribozyme fitness (log ratio)": "≤ -4.2"}, {"variant": "A30U A52C U90C C93U C95U C96U A106G", "polymerase ribozyme fitness (log ratio)": "≤ -4.2"}, {"variant": "A30U G58C U90G C95A", "polymerase ribozyme fitness (log ratio)": "≤ -4.2"}, {"variant": "A29U U44A A49C C57U G88U", "polymerase ribozyme fitness (log ratio)": "≤ -4.2"}, {"variant": "A29U G50A C116U C129G", "polymerase ribozyme fitness (log ratio)": "≤ -4.2"}, {"variant": "A29U C69A G84A G141A", "polymerase ribozyme fitness (log ratio)": "≤ -4.2"}, {"variant": "A29U G81U G92C C116G G140A U148C", "polymerase ribozyme fitness (log ratio)": "≤ -4.2"}, {"variant": "A30G A121G", "polymerase ribozyme fitness (log ratio)": -3.36}, {"variant": "A30G A121U", "polymerase ribozyme fitness (log ratio)": -3.39}, {"variant": "A30G A41U U135A A137U", "polymerase ribozyme fitness (log ratio)": "≤ -4.2"}, {"variant": "A29G A37U A47U U55A G84U A89G A120C G140C U144G", "polymerase ribozyme fitness (log ratio)": "≤ -4.2"}, {"variant": "A29G U55G C57G C87A A107G", "polymerase ribozyme fitness (log ratio)": "≤ -4.2"}, {"variant": "A29U G34C G48C G80A U82A C105A A115G U151A", "polymerase ribozyme fitness (log ratio)": "≤ -4.2"}, {"variant": "A30U C35U G68U A120U", "polymerase ribozyme fitness (log ratio)": "≤ -4.2"}, {"variant": "A30G G141C", "polymerase ribozyme fitness (log ratio)": -3.51}, {"variant": "A30C U44G C108G U145G", "polymerase ribozyme fitness (log ratio)": "≤ -4.2"}, {"variant": "A30C G84A A115C C149U", "polymerase ribozyme fitness (log ratio)": "≤ -4.2"}, {"variant": "A29U A97U A115U G124C U134C U148A", "polymerase ribozyme fitness (log ratio)": "≤ -4.2"}, {"variant": "A30G U44C G88C C105A", "polymerase ribozyme fitness (log ratio)": "≤ -4.2"}, {"variant": "A30G C95A U104A C118U C131A A138U G141A", "polymerase ribozyme fitness (log ratio)": "≤ -4.2"}, {"variant": "A30G G80A", "polymerase ribozyme fitness (log ratio)": -3.66}, {"variant": "A29G C76G C93U", "polymerase ribozyme fitness (log ratio)": "≤ -4.2"}, {"variant": "A29U G86A A97G A142U G143A", "polymerase ribozyme fitness (log ratio)": "≤ -4.2"}, {"variant": "A30C C95U", "polymerase ribozyme fitness (log ratio)": -4.11}, {"variant": "A29G G84U G117A", "polymerase ribozyme fitness (log ratio)": "≤ -4.2"}, {"variant": "A30G A39C U55G U82C G136U", "polymerase ribozyme fitness (log ratio)": "≤ -4.2"}, {"variant": "A30G G48A G80U G88U U109C", "polymerase ribozyme fitness (log ratio)": "≤ -4.2"}, {"variant": "A30U C43G A47G U53G C72A G140A", "polymerase ribozyme fitness (log ratio)": "≤ -4.2"}, {"variant": "A30U G68U A73U G140U", "polymerase ribozyme fitness (log ratio)": "≤ -4.2"}, {"variant": "A29C U44G U55A G68A G71U G80A C93A A98U A138C", "polymerase ribozyme fitness (log ratio)": "≤ -4.2"}, {"variant": "A30G G74U C95A U148G", "polymerase ribozyme fitness (log ratio)": "≤ -4.2"}, {"variant": "A29G C43U U45A A52C C75G A91U A115G U151G", "polymerase ribozyme fitness (log ratio)": "≤ -4.2"}, {"variant": "A30G G42A U55G G65A C76G C87G A106U G143A A147C", "polymerase ribozyme fitness (log ratio)": "≤ -4.2"}, {"variant": "A29G G48A C75U", "polymerase ribozyme fitness (log ratio)": "≤ -4.2"}, {"variant": "A29U A107C", "polymerase ribozyme fitness (log ratio)": "≤ -4.2"}, {"variant": "A29U A137G", "polymerase ribozyme fitness (log ratio)": "≤ -4.2"}, {"variant": "A29G A47C G70A C85G A89U A138C A142U", "polymerase ribozyme fitness (log ratio)": "≤ -4.2"}, {"variant": "A29U A49C C63U C116U G133C U139A U146A", "polymerase ribozyme fitness (log ratio)": "≤ -4.2"}, {"variant": "A30U C57A A73G G81C G92U G141A U148A", "polymerase ribozyme fitness (log ratio)": "≤ -4.2"}]}]}
